Experimental data from the Human Domainome abundance scans (Beltran et al. 2025).

B1: POU domain, class 3, transcription factor 2, residues 356 to 411; numbered along this chain, P20265 (parent)
chain: KKRTSIEVSVKGALESHFLKCPKPSAQEITSLADSLQLEKEVVRVWFCNRRQKEKR

Variants of: B1
Assay: abundance fitness (aPCA) (normalised: wild type 0, dead -1); higher = more abundant; growth selection in yeast, the domain comes from the species named
Settings: Homo sapiens

Abundance fitness: each site, then its substitutions
E28: D -0.281, C -0.299, L -0.369, N -0.551, K -0.413, T -0.088, Q -0.402, R -0.466, M -0.437, V -0.195, I -0.52, S -0.455, P -0.802, A -0.257, W -0.505, F -0.511
I29: N -1.05, V -0.158, L -0.095, R -0.93, T -0.593, M -0.093, K -0.994, S -0.884, Q -0.782, A -1.03, E -0.763, C -0.633, H -0.817, F -0.786, Y -0.741, W -0.855
S25: A -0.322, K -0.318, N -0.167, M -0.446, Y -0.798, P -0.579, I -0.793, V -0.725, C -0.231, T 0.038, F -0.902, G -0.194, R -0.47, L -0.423, H -0.467
V43: A -0.615, E -1.01, C -0.547, D -0.958, G -0.906
L36: F -0.291, W -0.545, A -0.929, D -0.842, M -0.564, V -0.53, K -0.868, R -0.938, Q -1.25, P -0.608, N -0.543, C -0.428, E -0.892, H -0.527, I -0.7, T -0.7, Y -0.151, G -0.866
L32: F -0.341, D -1.03, T -0.943, N -1.07, S -0.875, M -0.08, P -0.944, R -0.911, Y -0.831, Q -0.789, W -0.915, E -0.916, V -0.303, I -0.161, G -0.834, A -0.994, K -0.927, H -0.857
V42: G -0.453, Y 0.05, F -0.042, R -0.363, T -0.02, P -0.869, E 0.01, D 0.051, N -0.309, S -0.179, Q -0.136, H 0.081, M -0.299, K -0.116, W -0.147, I -0.204, A -0.089, C -0.01
T30: K 0.008, C -0.131, D 0.05, R -0.151, Q 0.078, S 0.036, A -0.041, N 0.212, V -0.016, I -0.237, L -0.091, E 0.022, F -0.396, W -0.324, Y -0.285, H -0.205
L38: T -0.26, E -0.696, K -0.927, Q -0.519, N -0.964, D -0.983, S -0.924, A -0.713, P -0.969, F -0.788, V -0.119, Y -0.827, W -0.804, I -0.191, G -0.871
E39: K -0.121, C -0.133, P -0.244, A -0.224, I -0.982, Y -0.653, S -0.039, G -0.324, F -1.01, N -0.217, H 0.036, L -0.847, W -0.943, M -0.941, R -0.404, T -0.159
A26: D 0.151, F -0.312, E -0.064, W -0.11, S -0.134, M 0.03, G -0.141, L -0.179, K -0.162, Q 0.01, H -0.059, C -0.244, V -0.049, N -0.097
